The source of these data is patent US20200002426A1 (published 2020).

The target of assay [1] is FITC labeled human PD-L1-Fc protein (human, UniProt Q9NZQ7 19-238, FITC labeled (sites not given)). The assay can be described thus: FACS blocking of PD-L1/PD-1.
The target in assay [2] is His-tagged huPD-L1 (human, UniProt Q9NZQ7 19-238). Description: BLI. A general note: In BLI a coated tip is dipped into the sample, and binding shifts an interference pattern.
The target of assay [3] is His tagged TGF-β1 (UniProt P01137 279-390). The assay can be described thus: BLI.
Sequence of His tagged TGF-β1 (P01137 279-390): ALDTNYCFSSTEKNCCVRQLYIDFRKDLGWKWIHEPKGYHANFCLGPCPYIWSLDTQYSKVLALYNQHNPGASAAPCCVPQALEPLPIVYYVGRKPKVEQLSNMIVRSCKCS
Assay [4] addresses human PD-L1 on CHO-K1 cells (human, UniProt Q9NZQ7 19-290). Description: FACS binding. (A flow cytometer gives signals particle by particle.)
The target of assay [5] is huTGF-β1 (human, UniProt P01137 279-390). The assay can be described thus: ELISA; simultaneous binding, detected with biotinylated hu PD-L1.
Sequence of huTGF-β1 (P01137 279-390): as above

Sequence of His-tagged huPD-L1 (Q9NZQ7 19-238): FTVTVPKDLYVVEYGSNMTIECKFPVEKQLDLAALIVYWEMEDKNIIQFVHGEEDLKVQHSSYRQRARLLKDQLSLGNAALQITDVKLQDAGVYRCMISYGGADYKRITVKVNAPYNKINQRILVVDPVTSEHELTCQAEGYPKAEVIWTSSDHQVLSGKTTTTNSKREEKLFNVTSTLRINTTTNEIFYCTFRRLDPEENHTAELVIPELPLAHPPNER
Sequence of FITC labeled human PD-L1-Fc protein (Q9NZQ7 19-238): as above
Sequence of human PD-L1 on CHO-K1 cells (Q9NZQ7 19-290): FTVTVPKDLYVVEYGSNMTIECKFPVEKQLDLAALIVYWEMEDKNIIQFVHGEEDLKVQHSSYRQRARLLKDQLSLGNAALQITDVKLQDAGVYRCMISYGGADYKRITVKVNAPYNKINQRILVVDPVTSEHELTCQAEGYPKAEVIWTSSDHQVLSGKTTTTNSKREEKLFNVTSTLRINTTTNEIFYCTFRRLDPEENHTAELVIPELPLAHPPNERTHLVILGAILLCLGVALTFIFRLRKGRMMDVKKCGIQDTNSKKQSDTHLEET

B1: Bi-PLB-1.2 (antibody)
chain 1: not shown
chain 2: DIQMTQSPSFLSASVGDRVTITCKASQNVGTNVAWYQQKPGKAPKALIYSASYRYSGVPSRFSGSGSGTEFTLTISSLQPEDFATYYCQQYYSYPYTFGQGTKLEIKRTVAAPSVFIFPPSDEQLKSGTASVVCLLNNFYPREAKVQWKVDNALQSGNSQESVTEQDSKDSTYSLSSTLTLSKADYEKHKVYACEVTHQGLSSPVTKSFNRGEC
By IC50 is commonly meant the concentration needed to halve the response being measured. A low value points to greater potency. Usually Kd stands for the constant that tells how readily two partners part at equilibrium. A high value points to weaker binding. By EC50 is commonly meant the concentration giving half of the maximal effect. Higher therefore signals lower potency in that assay. B1 yielded a 50% inhibitory concentration (IC50) in assay [1] of 1.23 nM. In addition, the equilibrium dissociation constant (Kd) in assay [2] amounted to 0.83 nM; in assay [3] it was 0.28 nM. The half-maximal effective concentration (EC50) in assay [4] was found to be 1.6 nM; in assay [5], 10.3 nM.
